Data reported in PMC9164447.

Target: SARS-CoV-2 nucleocapsid N protein wild type (SARS-CoV-2) (UniProt P0DTC9)
Assay: fluorescence anisotropy

## NNNNNNNNNN [10-nt degenerate RNA]
  Kd: 28 nM
